Results as given in the supplement of paper PMC12764529.
± gives the half width of the 95% confidence interval.

Assay: folding stability dG unfold from trypsin proteolysis; higher = more stable
How it was run: (§1)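 Only designs with AlphaFold2 dimer inter-PAE above 15 were retained; each was a mini-protein under 80 residues with no cysteine, in a PA-tagged cDNA display construct. After digestion with trypsin and chymotrypsin and sequencing, K50 was inferred by Bayesian fitting of counts, and unfolding free energy was derived per protease or combined against a sequence-predicted unfolded-state K50 and a shared folded-state K50.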

Point of comparison: “SAGGGSSYTLLSESTSTDPATGATLTTTTYRAPDGTIYYDSTLTAPDGTTTGTATAVDPDGTPVTIALSAGG [r13_573_JUSTAS]”, “folding stability dG unfold” value 1.32 ± 0.035 kcal/mol. Against it:
- SAGGSAGGSAGGMIIKINGKYYKIKKIEKNPNGKYTITTENGKKYEFKNVKIFSEEELKSAGGSAGGSAGGS [r10_1151_TrROS_Hall] — higher, 3.05 ± 0.18 kcal/mol
- SAGGSMVIEAEIEFPDMTPEEVEERAEEIAEAAAEFARKKGFPIKKVEADVEVFPGEGVVKVTVTLEGSAGG [r13_212_TrMRF] — lower, 0.612 ± 0.043 kcal/mol
- SAGEEIERLLKEIEEAVRKAYPDKVVKVDLVKVELRPVLVVDPGTPRIEERTEIFLEVKVTVTHPDELSAGG [r19_293_TrMRF] — higher, 2.22 ± 0.098 kcal/mol
- SAGGSAGGMTTTEISTKKLPDGTWATTVTTTTITATNGVPVTTSTPTTIINPGDPSVAIAAALSSAGGSAGG [r6_129_JUSTAS] — lower, 0.209 ± 0.013 kcal/mol
- SAGGDPIEDIVKEIAEEHGYPIKNVEVEPVDPNTLVVEVQMPNGYRIKIEIPYDPDGDLNINVEWEPSAGGS [r8_284_TrROS] — lower, 1.13 ± 0.11 kcal/mol
- SAGGMITLTLPIPAEFLEKHGLDEAKKIVLEKAKEELKKLGLSEKYPIKKIEITPEPESLTATIVILSAGGS [r16_368_JUSTAS] — higher, 2 ± 0.036 kcal/mol
- SAKKTVKLKIEIYKVKVEKLKDGKEKITEVEKIAELEIEAEVDEDGKVTIRIDGKEIEVPAGTSLEELLSAG [r14_909_TrROS_Hall] — higher, 2.22 ± 0.17 kcal/mol
- SMVITLPVEDEEKLKELLDELKEQLEKAEEEGLETVTITITLEDGETLEITIDKNMTVEELLEQLEKALESA [r9_127_TrROS_Hall] — higher, 3.22 ± 0.33 kcal/mol
- SAGGSAGGSAGGGTAEELAKELEDLGYKVKLEPEGDYLLLTVTDPDNDKPYVILLDPETISAGGSAGGSAGG [r7_0_TrMRF] — within error, 1.25 ± 0.067 kcal/mol
- SAGMEPTTITVDVTIPPEVFARLSEEELKEKVLAELGIPESLPVEVEISRKEVKLDGKTVYVVPMTIVGSAG [r14_334_JUSTAS] — lower, 0.117 ± 0.085 kcal/mol
- SAGGKKKKVIIVIEAPPGMSAEEIAAAIAEKLGLPKEEIKVERFKSVEEALAAAEKEGKEVIVIEVDSAGGS [r8_245_TrROS_Hall] — higher, 2.06 ± 0.053 kcal/mol
- SAGGSAGGSMKYLVTFPEGGPVPLPDGTSVALAPGAVLELETEEEAEALKALNPGRPVVITPVSAGGSAGGS [r12_987_JUSTAS] — higher, 1.51 ± 0.037 kcal/mol
- SAGGDNVRPIKFEFKDGVKKSIYRSEDMIYINVEFYYDGRPLYRHSIEIPNIPPGDDAEIKFKIPPGSAGGS [r8_155_TrROS] — lower, 0.372 ± 0.18 kcal/mol
- SAGGSAPKPDWIVRIEITVKFPGKTKKIDIVIDSPEALNQIINELKDEGFKDVEPKIEWVPLEEMKSAGGSA [r15_1015_TrROS] — lower, 0.296 ± 0.089 kcal/mol
- SMPVTITITLHKDPNSDVIPVRLEMTDSAGNPIGEREIDYTTTEEEARERAVALAEEIAAATGYTIEFGESA [r9_31_JUSTAS] — within error, 1.27 ± 0.069 kcal/mol
- SAGGGLALRLEVETERVEREVFDADGRLVAREEVEVRRVRLELVPLPPAPPPPTVTVRPGDPRDPRLRSAGG [r13_508_TrROS_Hall] — higher, 1.53 ± 0.13 kcal/mol
- SAMRIEIVRDPETGELVVRVVLPREEAEEAAEELARRLAEAGLEVEVKVVRIEETDGETRVVVEIKVKPSAG [r14_345_TrROS_Hall] — higher, 3.74 ± 0.11 kcal/mol
- SAFRFPPGQTIMIKIEWRNPGNGKKRKWSIPIRVDPDKGRVITLDMLKSFLRKWGFNPEDVKIEDITVMSAG [r14_93_TrROS] — higher, 2.145 ± 0.013 kcal/mol
- SAGGSAPFVPPGFVKSVEEFEVTFPDGSKYRVTLIEVDGGPLVLVEKPGVGEPKTLPFEKLLELLASAGGSA [r15_329_TrMRF] — higher, 1.88 ± 0.11 kcal/mol
- SAGGSAGGSSSSSVVTKPLPEEPLLVVTTTLPPSTPPGTTSTTTIIEPETGKVLETTDINIPSSAGGSAGGS [r12_564_JUSTAS] — higher, 1.92 ± 0.13 kcal/mol
- SAGGSAGGTSVADELEEEFKAKGYPAEVTVTKLPDDTTLVTVTVTDPKTGKSTTTTVTVSPAEASAGGSAGG [r6_692_JUSTAS] — lower, 1.02 ± 0.076 kcal/mol
- SAGKKIELTFRNPDGWMIRITIEKKPNGGFQITEITWEPYPNGRMSAKIYVPNGKTIEVNSWDDILDALSAG [r5_618_TrROS] — lower, 1.09 ± 0.038 kcal/mol
- SAGGSAGGSAGKKVKISLILIAKSPEEAEEAAKAIKEAFGSEDVEVDIIEIPAKLGPGKLSAGGSAGGSAGG [r17_285_TrMRF] — lower, 0.319 ± 0.072 kcal/mol
- SAAFKGKNGKTIKITAKVKPNELTPEQVKELALAAVKNIFPENEKVEVKVKVEKLPNGEVLVYVEVKAESAG [r14_389_TrMRF] — lower, 1.22 ± 0.038 kcal/mol
- SAGGSGQKFEIDRMIHIPLPNGRMLYIMRMKNPIMIMEFNGDNFRPVATVPNDDIPPEIRDLIKKLSAGGSA [r2_133_TrROS] — higher, 1.95 ± 0.068 kcal/mol
- SAGGSIETIAERARDLARELNPDDGKEYPITIEIRDPENNRPIRIKISVRYDPDGKIKKVKFTKFEPYSAGG [r13_770_TrROS] — lower, 1.03 ± 0.06 kcal/mol
- SAGGSAKKKEVKELTLVIKVKTEEEALKAAEELIRKLLPPDAEIVEVKVEKVKPGEVYITVKVRLKSAGGSA [r15_183_TrROS_Hall] — higher, 2.36 ± 0.12 kcal/mol
- SAGGSAMVMITIKIKFPGNEVEINMPAEDLDELLSHPELGDNFEITEIEVMPIPPPPVDPEQAEEKSAGGSA [r15_460_TrROS] — within error, 1.21 ± 0.15 kcal/mol
- SMSPEALKKANEFAEYIAEHFKNWNIEIDVEVEWDPDGEITIRAKIEMRPPPPPPPKPKRDPNGKWKWEGSA [r9_82_TrROS] — lower, 0.943 ± 0.079 kcal/mol
- SAGGSAGGSAGMLWIHDPESGTLVMLHPKPDGEVNVQVWQFDPDNGKPEIKTVPADNIEASAGGSAGGSAGG [r11_285_TrROS] — lower, 0.376 ± 0.046 kcal/mol
- SAMVEVRIEYDEETGEIRIEVRAEEEGEELTEEEIEELARELAEELGLPVEIKEIRVEKAPEVEEVVLESAG [r14_556_TrROS_Hall] — lower, 1.05 ± 0.18 kcal/mol
- SAGGGMEIRLTIYRVDPETGVETSVEKEVTLEEAKEIVKEIPEEGEYTVRVTRPDRPEDVSPEELKLLSAGG [r13_254_JUSTAS] — lower, 0.246 ± 0.11 kcal/mol
- SAKIKIEKKEDGTIVIEVEAESEEEAEEAVKELVKELEKKGIKVEVVEVKIEKDPEKKGKYRVTIVIKKSAG [r14_119_TrROS_Hall] — higher, 2.69 ± 0.21 kcal/mol
- SAMTVTSSVTTQPVPDSSDTVTYTNITVTIGNQTVTYTETVTYSSTDPTLRTVTTLLPDGTTVTTTVPVGSA [r9_897_JUSTAS] — higher, 1.94 ± 0.1 kcal/mol
- SAGGSAGGSAFKLPPGKKITIFFDPENGNFAIMVPDGNERRVPMPAEELIKLGFPVEIIGPWSAGGSAGGSA [r18_125_TrROS] — lower, 0.365 ± 0.14 kcal/mol
- SAGGSAGGSAVTIYIPWDEILEELGLPPEDVEYKPMKNGSYSFKYKNGKPVTIIMPPEDFKSAGGSAGGSAG [r3_477_TrROS] — lower, -0.12 ± 0.29 kcal/mol
- SAGGSAGGSGSSSMPVTVEVKPLATEVDPSNGLVTVTELVTVTRGDTTTLTVTTTTLPPGAPASAGGSAGGS [r12_1010_JUSTAS] — lower, 1.16 ± 0.027 kcal/mol
- SAGGSAGGSAGGERVVRFPYTGTLEDVLEAARRLRRLGGVEVGYDPENGVLLARFKGGGLSAGGSAGGSAGG [r7_219_TrMRF] — lower, 0.54 ± 0.056 kcal/mol
- SAGGSAGGSAMTIKVEVTVKVKVKLENGETKEKEVKVTVEIELPPLTKEELEKNKELLKKLLSAGGSAGGSA [r18_114_TrROS_Hall] — higher, 2.42 ± 0.14 kcal/mol
- SAGGSAGGSMKVSPASRSEFDGSRVITITVTKEGTGTTTDITIPFSPDEPDVDEVAKAIAESLSAGGSAGGS [r12_415_JUSTAS] — lower, 0.0886 ± 0.12 kcal/mol
- SAGGSAEELAKELAEKEGVKEVKVTVIKNKNGKLVLKVENKETNKTYEIELPEGAEVVEEITLKVKSAGGSA [r2_74_TrROS_Hall] — lower, 0.106 ± 0.086 kcal/mol

Assay: folding stability dG unfold from chymotrypsin proteolysis; higher = more stable
How it was run: as §1

Point of comparison: “SAGGSAPFVPPGFVKSVEEFEVTFPDGSKYRVTLIEVDGGPLVLVEKPGVGEPKTLPFEKLLELLASAGGSA [r15_329_TrMRF]”, “folding stability dG unfold” value 1.36 ± 0.075 kcal/mol. Against it:
- SAGGSAGGSAGGMIIKINGKYYKIKKIEKNPNGKYTITTENGKKYEFKNVKIFSEEELKSAGGSAGGSAGGS [r10_1151_TrROS_Hall] — higher, 4.19 ± 0.061 kcal/mol
- SAGGSMVIEAEIEFPDMTPEEVEERAEEIAEAAAEFARKKGFPIKKVEADVEVFPGEGVVKVTVTLEGSAGG [r13_212_TrMRF] — lower, 0.204 ± 0.2 kcal/mol
- SAGEEIERLLKEIEEAVRKAYPDKVVKVDLVKVELRPVLVVDPGTPRIEERTEIFLEVKVTVTHPDELSAGG [r19_293_TrMRF] — higher, 2.77 ± 0.08 kcal/mol
- SAGGSAGGMTTTEISTKKLPDGTWATTVTTTTITATNGVPVTTSTPTTIINPGDPSVAIAAALSSAGGSAGG [r6_129_JUSTAS] — lower, -1 ± 0.29 kcal/mol
- SAGGDPIEDIVKEIAEEHGYPIKNVEVEPVDPNTLVVEVQMPNGYRIKIEIPYDPDGDLNINVEWEPSAGGS [r8_284_TrROS] — higher, 2.04 ± 0.045 kcal/mol
- SAGGMITLTLPIPAEFLEKHGLDEAKKIVLEKAKEELKKLGLSEKYPIKKIEITPEPESLTATIVILSAGGS [r16_368_JUSTAS] — higher, 1.95 ± 0.026 kcal/mol
- SAKKTVKLKIEIYKVKVEKLKDGKEKITEVEKIAELEIEAEVDEDGKVTIRIDGKEIEVPAGTSLEELLSAG [r14_909_TrROS_Hall] — higher, 3.06 ± 0.12 kcal/mol
- SMVITLPVEDEEKLKELLDELKEQLEKAEEEGLETVTITITLEDGETLEITIDKNMTVEELLEQLEKALESA [r9_127_TrROS_Hall] — higher, 1.57 ± 0.12 kcal/mol
- SAGGSAGGSAGGGTAEELAKELEDLGYKVKLEPEGDYLLLTVTDPDNDKPYVILLDPETISAGGSAGGSAGG [r7_0_TrMRF] — lower, 0.776 ± 0.028 kcal/mol
- SAGMEPTTITVDVTIPPEVFARLSEEELKEKVLAELGIPESLPVEVEISRKEVKLDGKTVYVVPMTIVGSAG [r14_334_JUSTAS] — lower, 0.652 ± 0.11 kcal/mol
- SAGGKKKKVIIVIEAPPGMSAEEIAAAIAEKLGLPKEEIKVERFKSVEEALAAAEKEGKEVIVIEVDSAGGS [r8_245_TrROS_Hall] — higher, 2.56 ± 0.059 kcal/mol
- SAGGSAGGSMKYLVTFPEGGPVPLPDGTSVALAPGAVLELETEEEAEALKALNPGRPVVITPVSAGGSAGGS [r12_987_JUSTAS] — within error, 1.35 ± 0.03 kcal/mol
- SAGGGSSYTLLSESTSTDPATGATLTTTTYRAPDGTIYYDSTLTAPDGTTTGTATAVDPDGTPVTIALSAGG [r13_573_JUSTAS] — within error, 1.39 ± 0.12 kcal/mol
- SAGGDNVRPIKFEFKDGVKKSIYRSEDMIYINVEFYYDGRPLYRHSIEIPNIPPGDDAEIKFKIPPGSAGGS [r8_155_TrROS] — within error, 1.55 ± 0.22 kcal/mol
- SAGGSAPKPDWIVRIEITVKFPGKTKKIDIVIDSPEALNQIINELKDEGFKDVEPKIEWVPLEEMKSAGGSA [r15_1015_TrROS] — within error, 1.21 ± 0.17 kcal/mol
- SMPVTITITLHKDPNSDVIPVRLEMTDSAGNPIGEREIDYTTTEEEARERAVALAEEIAAATGYTIEFGESA [r9_31_JUSTAS] — lower, 0.266 ± 0.22 kcal/mol
- SAGGGLALRLEVETERVEREVFDADGRLVAREEVEVRRVRLELVPLPPAPPPPTVTVRPGDPRDPRLRSAGG [r13_508_TrROS_Hall] — higher, 3.18 ± 0.04 kcal/mol
- SAMRIEIVRDPETGELVVRVVLPREEAEEAAEELARRLAEAGLEVEVKVVRIEETDGETRVVVEIKVKPSAG [r14_345_TrROS_Hall] — higher, 2.88 ± 0.061 kcal/mol
- SAFRFPPGQTIMIKIEWRNPGNGKKRKWSIPIRVDPDKGRVITLDMLKSFLRKWGFNPEDVKIEDITVMSAG [r14_93_TrROS] — within error, 1.31 ± 0.069 kcal/mol
- SAGGSAGGSSSSSVVTKPLPEEPLLVVTTTLPPSTPPGTTSTTTIIEPETGKVLETTDINIPSSAGGSAGGS [r12_564_JUSTAS] — lower, 0.954 ± 0.1 kcal/mol
